This note sets out measurements from publication PMC10397247.

The target of one assay is T1, P6A-bN.
T1 chain: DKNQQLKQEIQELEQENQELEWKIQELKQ
Description: two-hybrid library CCNG1.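 Further: natural log of median RNA to DNA barcode read ratio; higher means stronger binding.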

Another assay addresses T2, P8A-bN.
T2 chain: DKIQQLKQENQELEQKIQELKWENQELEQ
The assay is described as follows: two-hybrid library CCNG1.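 Further: natural log of median RNA to DNA barcode read ratio; higher means stronger binding.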

The target of a further assay is T3, P5A-bN.
T3 chain: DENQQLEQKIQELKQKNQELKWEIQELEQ
Description: two-hybrid library CCNG1.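 Further: natural log of median RNA to DNA barcode read ratio; higher means stronger binding.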

Another assay addresses T4, P7A-bN.
T4 chain: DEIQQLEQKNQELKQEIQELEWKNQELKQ
Description: two-hybrid library CCNG1.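 Further: natural log of median RNA to DNA barcode read ratio; higher means stronger binding.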

The target of a further assay is T5, P9A-bN.
T5 chain: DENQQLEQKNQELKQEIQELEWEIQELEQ
The assay is described as follows: two-hybrid library CCNG1.

The next assay concerns the target T6, 4H2518-bN.
T6 chain: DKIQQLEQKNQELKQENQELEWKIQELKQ
Description: two-hybrid library CCNG1.

The target of the next assay is T7, 4H949-bN.
T7 chain: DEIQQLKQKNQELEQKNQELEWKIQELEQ
Description: two-hybrid library CCNG1.

Another assay concerns the target T8, 4H2859-bN.
T8 chain: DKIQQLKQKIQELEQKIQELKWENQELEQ
Description: two-hybrid library CCNG1.

Another assay deals with T9, 4H730-bN.
T9 chain: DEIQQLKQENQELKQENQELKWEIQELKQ
Description: two-hybrid library CCNG1.

A further assay addresses T10, 4H3041-bN.
T10 chain: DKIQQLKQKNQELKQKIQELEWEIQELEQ
Description: two-hybrid library CCNG1.

A further assay deals with T11, 4H2931-bN.
T11 chain: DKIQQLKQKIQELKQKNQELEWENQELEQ
Description: two-hybrid library CCNG1.

Another assay concerns the target T12, 4H2585-bN.
T12 chain: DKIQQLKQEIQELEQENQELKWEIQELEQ
The assay is described as follows: two-hybrid library CCNG1.

A further assay deals with T13, 4H2760-bN.
T13 chain: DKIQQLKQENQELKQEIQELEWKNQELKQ
Description: two-hybrid library CCNG1.

The next assay concerns the target T14, 4H2444-bN.
T14 chain: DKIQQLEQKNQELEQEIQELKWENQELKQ
The assay is described as follows: two-hybrid library CCNG1.

The next assay addresses T15, 4H3364-bN.
T15 chain: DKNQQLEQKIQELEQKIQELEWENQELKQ
The assay is described as follows: two-hybrid library CCNG1.

A further assay has as its target T16, 4H56-bN.
T16 chain: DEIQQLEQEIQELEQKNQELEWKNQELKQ
Description: two-hybrid library CCNG1.

Another assay addresses T17, 4H796-bN.
T17 chain: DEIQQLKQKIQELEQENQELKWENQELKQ
Description: two-hybrid library CCNG1.

A further assay deals with T18, 4H3297-bN.
T18 chain: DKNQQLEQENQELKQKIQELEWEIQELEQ
The assay is described as follows: two-hybrid library CCNG1.

In a further assay the target is T19, 4H264-bN.
T19 chain: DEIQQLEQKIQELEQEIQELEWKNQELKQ
Description: two-hybrid library CCNG1.

The next assay has as its target T20, 4H932-bN.
T20 chain: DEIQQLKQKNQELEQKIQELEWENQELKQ
The assay is described as follows: two-hybrid library CCNG1.

The next assay has as its target T21, 4H3381-bN.
T21 chain: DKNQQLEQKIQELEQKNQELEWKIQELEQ
Description: two-hybrid library CCNG1.

The target in the next assay is T22, 4H349-bN.
T22 chain: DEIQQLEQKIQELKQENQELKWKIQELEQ
The assay is described as follows: two-hybrid library CCNG1.

The next assay deals with T23, O13-AA.
T23 chain: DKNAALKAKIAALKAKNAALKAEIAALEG
The assay is described as follows: two-hybrid library CCmax. As to conditions: mean of both orientations.

A further assay concerns the target T24, 4H3587-AA.
T24 chain: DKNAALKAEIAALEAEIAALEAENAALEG
The assay is described as follows: two-hybrid library CCmax. As to conditions: mean of both orientations.

The next assay deals with T25, 4H2888-AA.
T25 chain: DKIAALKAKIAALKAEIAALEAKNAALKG
Description: two-hybrid library CCmax. As to conditions: mean of both orientations.

The next assay deals with T26, O14-AA.
T26 chain: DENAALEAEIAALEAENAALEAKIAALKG
The assay is described as follows: two-hybrid library CCmax. As to conditions: mean of both orientations.

In another assay the target is T27, 4H43-AA.
T27 chain: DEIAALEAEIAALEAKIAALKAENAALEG
Description: two-hybrid library CCmax. As to conditions: mean of both orientations.

The target in the next assay is T28, 4H510-AA.
T28 chain: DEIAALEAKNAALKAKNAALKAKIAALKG
The assay is described as follows: two-hybrid library CCmax. As to conditions: mean of both orientations.

The target of another assay is T29, 4H2705-AA.
T29 chain: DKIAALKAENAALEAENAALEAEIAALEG
The assay is described as follows: two-hybrid library CCmax. As to conditions: mean of both orientations.

The next assay has as its target GCN2_T. The assay is described as follows: two-hybrid library CCmax. As to conditions: mean of both orientations.
For a further assay, the target named is T30, 4H3625-AA.
T30 chain: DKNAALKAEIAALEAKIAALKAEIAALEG
The assay is described as follows: two-hybrid library CCmax. As to conditions: mean of both orientations.

The target in the next assay is T31, O11-AA.
T31 chain: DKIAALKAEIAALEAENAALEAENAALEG
Description: two-hybrid library CCmax. As to conditions: mean of both orientations.

The next assay has as its target 4H_GCN4. The assay is described as follows: two-hybrid library CCmax. As to conditions: mean of both orientations.
For another assay, the target named is T32, 4H337-AA.
T32 chain: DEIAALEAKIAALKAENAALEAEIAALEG
The assay is described as follows: two-hybrid library CCmax. As to conditions: mean of both orientations.

The target of the next assay is T33, 4H4038-AA.
T33 chain: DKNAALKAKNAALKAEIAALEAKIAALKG
The assay is described as follows: two-hybrid library CCmax. As to conditions: mean of both orientations.

The target in another assay is T34, 4H_APH.
T34 chain: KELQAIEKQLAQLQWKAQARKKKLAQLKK
The assay is described as follows: two-hybrid library CCmax. As to conditions: mean of both orientations.

The next assay has as its target T35, 4H3590-AA.
T35 chain: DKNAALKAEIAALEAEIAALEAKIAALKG
The assay is described as follows: two-hybrid library CCmax. As to conditions: mean of both orientations.

In the next assay the target is T36, 4H2622-AA.
T36 chain: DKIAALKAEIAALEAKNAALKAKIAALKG
Description: two-hybrid library CCmax.

A further assay deals with T37, 4H3905-AA.
T37 chain: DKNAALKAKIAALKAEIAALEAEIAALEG
Description: two-hybrid library CCmax. As to conditions: mean of both orientations.

The target in another assay is T38, 4H451-AA.
T38 chain: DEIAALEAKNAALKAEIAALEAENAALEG
The assay is described as follows: two-hybrid library CCmax. As to conditions: mean of both orientations.

The next assay concerns the target T39, 4H2736-AA.
T39 chain: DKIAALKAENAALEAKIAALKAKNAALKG
The assay is described as follows: two-hybrid library CCmax. As to conditions: mean of both orientations.

Another assay deals with T40, 4H384-AA.
T40 chain: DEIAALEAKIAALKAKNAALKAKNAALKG
The assay is described as follows: two-hybrid library CCmax. As to conditions: mean of both orientations.

Another assay addresses T41, 4H3049-AA.
T41 chain: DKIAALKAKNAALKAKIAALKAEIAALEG
Description: two-hybrid library CCmax. As to conditions: mean of both orientations.

In a further assay the target is T42, 4H_BCR.
T42 chain: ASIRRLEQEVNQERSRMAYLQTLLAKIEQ
Description: two-hybrid library CCmax. As to conditions: mean of both orientations.

Sequence of 4H_GCN4 (chain, as listed by the source): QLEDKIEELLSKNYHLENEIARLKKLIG

For the molecule DENQQLEQKIQELKQKNQELKWEIQELEQ [P5A-bN], the interaction score with P6A-bN was 1.62; with P8A-bN, -0.311; in the assay with P5A-bN it was -1.81; in the assay with P7A-bN, -1.53; with P9A-bN, -1.14.
DKIQQLEQKNQELEQEIQELKWENQELKQ [4H2444-bN]: the interaction score with 4H2518-bN is -0.0731; with 4H949-bN, -0.477; in the assay with 4H2859-bN, 0.194; with 4H730-bN it was -0.506; with 4H3041-bN it was 0.447; with 4H2931-bN, -0.103. Besides, the interaction score was -0.578 with 4H2585-bN; -0.126 in the assay with 4H2760-bN; 1.34 in the assay with 4H2444-bN; -0.17 in the assay with 4H3364-bN; 0.273 in the assay with 4H56-bN; -0.0985 with 4H796-bN. Moreover, the interaction score with 4H3297-bN was -0.0483; with 4H264-bN, 0.471; with 4H932-bN, 0.018; in the assay with 4H3381-bN, 0.0258; in the assay with 4H349-bN it was -0.375.
For DKIAALKAEIAALEAKNAALKAKIAALKG [4H2622-AA], the interaction score with O13-AA was 0.551; with 4H3587-AA, 0.659; with 4H2888-AA, 0.116; with O14-AA, 2.2; with 4H43-AA it was 1.57; with 4H510-AA, -0.508. The interaction score with 4H2705-AA was found to be 0.956; with GCN2_T it was 0.0302; with 4H3625-AA it was 1.6; in the assay with O11-AA it was 1.62; with 4H_GCN4, 0.309; with 4H337-AA, 2.35. The interaction score with 4H4038-AA is -1.2; with 4H_APH, -1.87; in the assay with 4H3590-AA, 0.684; with 4H2622-AA it was 1.07; with 4H3905-AA, 1.43; with 4H451-AA it was -0.0617. The interaction score with 4H2736-AA was -0.125; with 4H384-AA it was -1.12; with 4H3049-AA, 0.212; in the assay with 4H_BCR it was -0.274.
